Test results taken from article doi:10.1101/2025.08.11.669663 (bioRxiv, 2025).

B1: catalase (CAT) (natural protein, human (endogenous in HeLa), UniProt P04040 1-527, looked up)
chain: MADSRDPASDQMQHWKEQRAAQKADVLTTGAGNPVGDKLNVITVGPRGPLLVQDVVFTDEMAHFDRERIPERVVHAKGAGAFGYFEVTHDITKYSKAKVFEHIGKKTPIAVRFSTVAGESGSADTVRDPRGFAVKFYTEDGNWDLVGNNTPIFFIRDPILFPSFIHSQKRNPQTHLKDPDMVWDFWSLRPESLHQVSFLFSDRGIPDGHRHMNGYGSHTFKLVNANGEAVYCKFHYKTDQGIKNLSVEDAARLSQEDPDYGIRDLFNAIATGKYPSWTFYIQVMTFNQAETFPFNPFDLTKVWPHKDYPLIPVGKLVLNRNPVNYFAEVEQIAFDPSNMPPGIEASPDKMLQGRLFAYPDTHRHRLGPNYLHIPVNCPYRARVANYQRDGPMCMQDNQGGAPNYYPNSFGAPEQQPSALEHSIQYSGEVRRFNTANDDNVTQVRAFYVNVLNEEQRKRLCENIAGHLKDAQIFIQKKAVKNFTEVHPDYGSHIQALLDKYNAEKPKNAIHTFVQSGSHLAAREKANL

Tests used:
catalase (CAT) = target: B1; experiment: co-IP
[1] = target: Cu/Zn superoxide dismutase (SOD1) (human (endogenous in HeLa), UniProt P00441 1-154); experiment: co-IP
Chain of Cu/Zn superoxide dismutase (SOD1) (P00441 whole entry): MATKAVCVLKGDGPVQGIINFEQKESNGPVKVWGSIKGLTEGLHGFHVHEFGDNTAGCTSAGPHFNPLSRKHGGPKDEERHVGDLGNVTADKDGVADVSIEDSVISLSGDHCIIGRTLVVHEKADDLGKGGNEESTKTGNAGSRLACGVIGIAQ

co-precipitated amount after H2O2 treatment, percent of that without H2O2 (catalase (CAT))	co-precipitated amount after H2O2 treatment, percent of control [1]	other results	Binder
175%	–	co-precipitated amount after H2O2 treatment, percent of that without H2O2 [1]: 130%	PRIM2 (a DNA primase subunit) (natural protein, human (endogenous in HeLa), UniProt P49643 1-509, looked up) MEFSGRKWRKLRLAGDQRNASYPHCLQFYLQPPSENISLIEFENLAIDRVKLLKSVENLGVSYVKGTEQYQSKLESELRKLKFSYRENLEDEYEPRRRDHISHFILRLAYCQSEELRRWFIQQEMDLLRFRFSILPKDKIQDFLKDSQLQFEAISDEEKTLREQEIVASSPSLSGLKLGFESIYKIPFADALDLFRGRKVYLEDGFAYVPLKDIVAIILNEFRAKLSKALALTARSLPAVQSDERLQPLLNHLSHSYTGQDYSTQGNVGKISLDQIDLLSTKSFPPCMRQLHKALRENHHLRHGGRMQYGLFLKGIGLTLEQALQFWKQEFIKGKMDPDKFDKGYSYNIRHSFGKEGKRTDYTPFSCLKIILSNPPSQGDYHGCPFRHSDPELLKQKLQSYKISPGGISQILDLVKGTHYQVACQKYFEMIHNVDDCGFSLNHPNQFFCESQRILNGGKDIKKEPIQPETPQPKPSVQKTKDASSALASLNSSLEMDMEGLEDYFSEDS
190%	–	–	POLD1 (a DNA polymerase subunit) (natural protein, human (endogenous in HeLa), UniProt P28340 1-1107, looked up) MDGKRRPGPGPGVPPKRARGGLWDDDDAPRPSQFEEDLALMEEMEAEHRLQEQEEEELQSVLEGVADGQVPPSAIDPRWLRPTPPALDPQTEPLIFQQLEIDHYVGPAQPVPGGPPPSRGSVPVLRAFGVTDEGFSVCCHIHGFAPYFYTPAPPGFGPEHMGDLQRELNLAISRDSRGGRELTGPAVLAVELCSRESMFGYHGHGPSPFLRITVALPRLVAPARRLLEQGIRVAGLGTPSFAPYEANVDFEIRFMVDTDIVGCNWLELPAGKYALRLKEKATQCQLEADVLWSDVVSHPPEGPWQRIAPLRVLSFDIECAGRKGIFPEPERDPVIQICSLGLRWGEPEPFLRLALTLRPCAPILGAKVQSYEKEEDLLQAWSTFIRIMDPDVITGYNIQNFDLPYLISRAQTLKVQTFPFLGRVAGLCSNIRDSSFQSKQTGRRDTKVVSMVGRVQMDMLQVLLREYKLRSYTLNAVSFHFLGEQKEDVQHSIITDLQNGNDQTRRRLAVYCLKDAYLPLRLLERLMVLVNAVEMARVTGVPLSYLLSRGQQVKVVSQLLRQAMHEGLLMPVVKSEGGEDYTGATVIEPLKGYYDVPIATLDFSSLYPSIMMAHNLCYTTLLRPGTAQKLGLTEDQFIRTPTGDEFVKTSVRKGLLPQILENLLSARKRAKAELAKETDPLRRQVLDGRQLALKVSANSVYGFTGAQVGKLPCLEISQSVTGFGRQMIEKTKQLVESKYTVENGYSTSAKVVYGDTDSVMCRFGVSSVAEAMALGREAADWVSGHFPSPIRLEFEKVYFPYLLISKKRYAGLLFSSRPDAHDRMDCKGLEAVRRDNCPLVANLVTASLRRLLIDRDPEGAVAHAQDVISDLLCNRIDISQLVITKELTRAASDYAGKQAHVELAERMRKRDPGSAPSLGDRVPYVIISAAKGVAAYMKSEDPLFVLEHSLPIDTQYYLEQQLAKPLLRIFEPILGEGRAEAVLLRGDHTRCKTVLTGKVGGLLAFAKRRNCCIGCRTVLSHQGAVCEFCQPRESELYQKEVSHLNALEERFSRLWTQCQRCQGSLHEDVICTSRDCPIFYMRKKVRKDLEDQEQLLRRFGPPGPEAW
–	170%	–	B1
–	180%	–	glyceraldehyde-3-phosphate dehydrogenase (GAPDH) (natural protein) not shown
–	–	co-precipitated amount after H2O2 treatment, percent of control (catalase (CAT)): 139%	peroxiredoxin 2 (PRDX2) (natural protein, human (endogenous in HeLa), UniProt P32119 1-198, looked up) MASGNARIGKPAPDFKATAVVDGAFKEVKLSDYKGKYVVLFFYPLDFTFVCPTEIIAFSNRAEDFRKLGCEVLGVSVDSQFTHLAWINTPRKEGGLGPLNIPLLADVTRRLSEDYGVLKTDEGIAYRGLFIIDGKGVLRQITVNDLPVGRSVDEALRLVQAFQYTDEHGEVCPAGWKPGSDTIKPNVDDSKEYFSKHN
